Data published in patent US20170081672.

Key:
[1] = tested on: ALS2_T1 TALE-nuclease right subunit; assay: cell_activity; conditions: yeast beta-galactosidase reporter, 37 C, as pair with left subunit; SD or SE 0.02; 0.86 (0.02) at 30 C; NHEJ in N. benthamiana protoplasts 70.68% (DNA, no …)
[2] = tested on: ALS2_T1 TALE-nuclease left subunit; assay: cell_activity; conditions: yeast beta-galactosidase reporter, 37 C, as pair with right subunit; SD or SE 0.02; 0.86 (0.02) at 30 C; NHEJ in N. benthamiana protoplasts 70.68% (DNA, no UTR)

“TGTCATGCTGGGTCAG (double strand) [ALS2_T1 right target half-site]” gave an activity (relative to I-SceI (max 1.0)) [1] of 0.97.

In the case of “TAGCTTGTTCCACATTT (double strand) [ALS2_T1 left target half-site]”, the activity (relative to I-SceI (max 1.0)) [2] is reported as 0.97.
